For series [1], the target named is P0AE08. As to the kind of experiment: SEC; 10 µM reduced EcAhpC (pre-reduced with 20 mM DTT, desalted) incubated at 53 °C for 60 min in 50 mM phosphate pH 7.0 with 1 mM TCEP, centrifuged; Superdex 200 10/300 GL; to HMW oligomers.
Series [2] addresses P0AE08. The series is described as follows: SEC; 10 µM oxidized EcAhpC incubated at 48 °C for 60 min in 50 mM phosphate pH 7.0, cooled to room temperature, centrifuged; Superdex 200 10/300 GL in 50 mM Tris pH 7; dimers to HMW oligomers.
The target of series [3] is P0AE08. As to the kind of experiment: SEC; 10 µM oxidized EcAhpC incubated at 50 °C for 60 min in 50 mM phosphate pH 7.0, cooled to room temperature, centrifuged; Superdex 200 10/300 GL in 50 mM Tris pH 7; dimers to HMW oligomers.
The target of series [4] is P0AE08. As to the kind of experiment: SEC; 10 µM protein (oxidized form) incubated at 53 °C for 60 min in 50 mM phosphate pH 7.0, cooled to room temperature, centrifuged; Superdex 200 10/300 GL in 50 mM Tris pH 7; dimers to HMW oligomers.
Series [5] concerns the molecule itself. The series is described as follows: dynamic light scattering; 1 mg/ml (50 µM) reduced EcAhpC (5 mM DTT) in 50 mM phosphate pH 7.0, equilibrated 10 min at 25 °C.
Series [6] concerns the molecule itself. The series is described as follows: SEC; 10 µM protein (oxidized form) incubated at 25 °C for 60 min in 50 mM phosphate pH 7.0, centrifuged; Superdex 200 10/300 GL in 50 mM Tris pH 7 at room temperature; mass estimated from standards.

This is an account of results in paper PMC6147784, “Molecular mechanism of the Escherichia coli AhpC in the function of a chaperone under heat-shock conditions” (Scientific Reports, 2018).

B1: Escherichia coli alkyl hydroperoxide reductase subunit C (EcAhpC), His-tagged recombinant wild type (protein)
chain: MSLINTKIKPFKNQAFKNGEFIEITEKDTEGRWSVFFFYPADFTFVCPTELGDVADHYEELQKLGVDVYAVSTDTHFTHKAWHSSSETIAKIKYAMIGDPTGALTRNFDNMREDEGLADRATFVVDPQGIIQAIEVTAEGIGRDASDLLRKIKAAQYVASHPGEVCPAKWKEGEATLAPSLDLVGKI
As to B1, the “peak ratio (8 ml HMW peak to 16.5 ml peak)” value in series [1] is listed as “about 10:1”. For the same protein, the “peak ratio (8.0 ml HMW peak to 15.5 ml dimer peak)” value in series [2] is reported as 0.02:1; in series [3], 0.2:1; in series [4], 0.9:1.

B2: Escherichia coli alkyl hydroperoxide reductase subunit C (EcAhpC), His-tagged recombinant wild type (enzyme, UniProt P0AE08 1-187, looked up)
chain: MSLINTKIKPFKNQAFKNGEFIEITEKDTEGRWSVFFFYPADFTFVCPTELGDVADHYEELQKLGVDVYAVSTDTHFTHKAWHSSSETIAKIKYAMIGDPTGALTRNFDNMREDEGLADRATFVVDPQGIIQAIEVTAEGIGRDASDLLRKIKAAQYVASHPGEVCPAKWKEGEATLAPSLDLVGKI
modifications: disulfide bonded (referred as oxidized form) as purified; reduced with DTT (kept with TCEP or DTT) in the assays marked as reduced
notes: Alkyl hydroperoxide reductase subunit C (AhpC) of Escherichia coli, the entire enzyme; the C-terminal extension is printed as aa 173-187; The same construct was used as the oxidized (intermolecular disulphide) and as the reduced form; the assay's format tells which; also called WT EcAhpC; oxidized EcAhpC; source: E. coli, purified (Ni2+-NTA, gel filtration on Superdex 75)
B2: the “stoichiometry N” value in series [5] was 10; in series [6], 2.
